Test results as given in patent US20210324011A1 (University of Washington, published 2021).

Experiments:
[1] = molecular target: the molecule itself; test: negative stain EM; 1 = filaments observed (self-assembly)
Description: The designs were expressed in Escherichia coli under the control of a T7 promoter and purified using immobilized metal affinity chromatography (IMAC). […] IMAC eluates were concentrated, and filament formation was monitored by negative stain electron microscopy (EM); insoluble designs were characterized by EM either directly in the initial insoluble fraction, or after solubilization in guanidine hydrochloride, IMAC, and subsequent removal of denaturant.
Negative Stain Electron Microscopy. Soluble fractions were concentrated and insoluble fractions were resuspended in buffer (25 mM Tris, 75 mM NaCl, pH 8) for EM screening. A drop of 6 μL (1 μl sample instantly diluted with 5 μl of buffer) was applied on negatively glow discharged, carbon-coated 200-mesh copper grids (Ted Pella, Inc.), washed with Milli-Q™ Water and stained using 0.75% uranyl formate as described previously (28). The screening was performed on either a 120 kV Tecnai Spirit™ T12 transmission electron microscope (FEI, Hillsboro, Oreg.) or a 100 kV Morgagni M268 transmission electron microscope (FEI, Hillsboro, Oreg.). Images were recorded on a bottom mount Teitz CMOS™ 4 k camera system. The contrast of the images was enhanced in the Fiji software (29) for clarity.

[2] = molecular target: the molecule itself; test: fluorescence microscopy in living E. coli (self-assembly)
DHF119_C6_anchor [3] = molecular target: T1, DHF119_C6_anchor; test: anchor on streptavidin-coated magnetic beads, microscopy
T1 construct: hexamer: avi-tag, monomer of designed hexamer 3H22, (GGS)5 linker, C cap of DHF119; also called anchor DHF119_C6
T1 chain: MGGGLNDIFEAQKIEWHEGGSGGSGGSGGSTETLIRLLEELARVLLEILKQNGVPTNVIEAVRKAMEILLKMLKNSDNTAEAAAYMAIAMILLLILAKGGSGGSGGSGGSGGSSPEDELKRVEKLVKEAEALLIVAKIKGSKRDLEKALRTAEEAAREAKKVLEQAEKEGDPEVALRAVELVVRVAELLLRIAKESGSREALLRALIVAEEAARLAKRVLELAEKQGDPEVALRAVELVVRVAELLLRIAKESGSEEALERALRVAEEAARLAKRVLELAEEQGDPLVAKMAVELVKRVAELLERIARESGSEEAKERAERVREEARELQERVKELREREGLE
Description: We sought to replicate this mechanism of control by designing multimeric anchor constructs, with multiple monomeric subunits held close to the relative orientations in the corresponding filaments by a fusion to designed homo-oligomers with the appropriate geometry (FIG. 14; one of the interaction interfaces is eliminated to restrict fiber growth in one direction). […] To study the kinetics of filament formation in vitro in more detail, we attached the anchors to glass slides, added monomers fused to yellow fluorescent protein (YFP) and monitored fiber formation by total internal reflection (TIRF) microscopy. The anchors seeded the rapid growth of multiple micron length fibers over 30 minutes (FIG. 4C; for analysis of growth kinetics of a second fiber see FIG. 15).

DHF119_C6_anchor [4] = molecular target: T1, DHF119_C6_anchor; test: TIRF microscopy over 30 minutes
Description: Filament Growth In Vitro. PEG-silane coated glass coverslips were attached to similarly-coated slides with strips of double-stick tape to make flow chambers. All incubations were at 25° C.
The background of the tif movies was subtracted using the software Fiji (29) with a ball radius of 5.0. The contrast was modified to reduce background noise to facilitate fiber identification. CellProfiler™ software (37) was used to identify and track fiber through the different time frames. The output files from CellProfiler™ provided the Major axis length for every fiber through all the movie.

B1: DHF82 (designed binder)
chain: MGPEEILESAKESLERAREASEAGLELVFRLAAEVALELAKRLVEQAKKEGDPELVLEAAKVALRVAELAAKNGDKEVFKKAAESALEVAKRLVEVASKEGDPELVLEAAKVALRVAELAAKNGDKEVFKKAAESALEVAKRLVEVASKEGDPTLVIMALIVAEEVIKLASKQGDELVMLKAVETAKEVKEEAMRVMLEKGLE
notes: vector pET28b; forms a homo-polymer
[1]
  binding result: binds

B2: DHF91 (designed binder)
chain: MGDERRELEKVAVKAIMAAMLGNTDEVREQLQRALEIARESGTLLAVVLALEVVARVAIEAARKGNTDAVREALEVALEIARESGTKVAVVLALEVVARVAIEAARRGNVLAVILALEVALEIARESGTEEAALLAVEVVVRVSDEAKKQGNAVAVAVAEQVAKKILE
notes: vector pET28b; forms a homo-polymer; cryoEM PDB 6E9X
[1]
  binding result: binds

B3: DHF107 (designed binder)
chain: MGPEEILERAKESLERAREASERGDEMEFRIAAQKALELARQLVLQALAEGDPELVLEAAKVALRVAELAAKNGDKEVFKKAAESALEVAKVLVLVASKEGKPELVLEAAKVALRVAVLAAMNGDKEVFKKAAESALEVAKRLVEVASKEGDPELVLEAAKVAEKVRVLAAVQGDEEVYEKARETAREVKEELKRVMEEKGLE
notes: as for B1
[1]
  binding result: binds

B4: DHF9 (designed binder)
chain: MGLILELAKLSLERARLASEAGDRVEFKIAAEKALLLAKVLVLQAKKEGDPELVLEAAKVALRVAELAAKNGDKEVFKKAAESALEVAKRLVEVASKEGDPELVLEAAKVALRVAELAAKNGDKEVFKKAAESALEVAKRLVEVASKEGDPELVEEAAKVAEEVRKLAKKQGDEEVYEKARETAREVKEELKRVREEKGDLE
notes: as for B1
[1]
  binding result: binds

B5: DHF58-GFP (designed binder)
chain: MELLRVVMLVKEAEELLTLAVIKGSEDDLQKALRTAVEAAREAVKVLLQAVKRGDPEVALRAVELVVRVAELLLRIAKESGSELALKMALLVAEEAARLAKIVLELAEKQGDPEVALRAVELVVRVAELLLRIAKESGSEEALERALRVAEEAARLAKRVLELAEKQGDPEVARRAVELVKRVAELLERIARESGSEEAKERAERVREEARELQERVKELREREGLE
notes: expressed in E. coli; not shown: green fluorescent protein
[2]
  binding result: binds

B6: DHF119 (designed binder)
chain: MGPEDELKRVEKLVKEAEALLIVAKIKGSKRDLEKALRTAEEAAREAVKVLVQALLEGDPEVALRAVELVVRVAELLLRIAKESGSREALLRALIVAEEAAKLAKMVLELAEKQGDPEVALRAVELVVRVAELLLRIAKESGSEEALERALRVAEEAARLAKRVLELAEEQGDPLVAKMAVELVKRVAELLERIARESGSEEAKERAERVREEARELQERVKELREREGLE
notes: vector pET28b; forms a homo-polymer; cryoEM PDB 6E9Z
DHF119_C6_anchor [3]
  binding result: binds

B7: DHF119-GFP (designed binder)
chain: B6 chain
notes: not shown: green fluorescent protein
DHF119_C6_anchor [4]
  binding result: binds

B8: DHF16 (designed binder)
chain: MGQILMKAKLSLVKAAEASLSGDELEFRIAAETALVLAKLLVLQAKKKGDPELVLEAAKVALRVAELAAKNGDKEVFKKAAESALEVAKRLVEVASKEGDPELVLEAAKVALRVAELAAKNGDKEVFKKAAESALEVAKRLVEVASKEGDPELVEEAAKVAEEVRKLAKKQGDEEVYEKARETAREVKEELKRVREEKGLE
notes: as for B1
[1]
  binding result: binds

B9: DHF17 (designed binder)
chain: MGHHHHHHSSGSSEKEELRERLVEIVVALAKAKGDDTELAREAAREAFELVREAAERAGIDSSMVLILAIQLILEVVANAAKEGYDISLAALAAAEAFKRVAEAAKRAGITSSMVLILAIRLIKEVVENAQREGYDISLAALAAAEAFKRVAEAAKRAGITSSMTLMRAIEEIRKRVEEAQREGNDISEAARQAAEEFIIKAVVLKARGDV
notes: as for B1
[1]
  binding result: binds

B10: DHF20 (designed binder)
chain: MDEMKARLLIERAKEAAERAQEAAERTGDPLVRLLAEMLKRLAQEAAEEVKRDPSSSDVNEALKLIVEAIEAAVRALEAAERTGDPEVRELASELVRLAVEAAEEVQRNPSSSDVNEALKLIVEAIEAAVRALEAAERTGDPRVRELARELVRLAVEAAEEVQRNPSSVEVALALLKIVKAIEEAVESLREAEESGDPMKRLEAALRVREAVERAEEVQRN
notes: vector pCDB24 (SUMO fusion); forms a homo-polymer
[1]
  binding result: binds

B11: DHF25 (designed binder)
chain: ARVVLKRVEKLVKEAETLLLVAIMKGSEEDLEKALRTAEEAAREAKKVLVLAVVVGDPEVALRAVELVVRVAELLLLIAIISGSEEALERALRVAEEAARLAKRVLELAENQGDPEVALRAVELVVRVAELLLMIAKVSGSEEALERALRVAEEAARLAKRVLELAEKQGDPEVARRAVELVKRVAELLERIARESGSEEAKERAERVREEALQLQARVMNLREREG
notes: as for B10
[1]
  binding result: binds
